The data set “cryo-EM structure” deals with the molecule itself. The data set is described as follows: cryo-EM structure.
A further data set concerns the target T1, TnsB Δ245-251 (Escherichia coli (Tn7), UniProt P13989 1-702, del245-251).
T1 sequence: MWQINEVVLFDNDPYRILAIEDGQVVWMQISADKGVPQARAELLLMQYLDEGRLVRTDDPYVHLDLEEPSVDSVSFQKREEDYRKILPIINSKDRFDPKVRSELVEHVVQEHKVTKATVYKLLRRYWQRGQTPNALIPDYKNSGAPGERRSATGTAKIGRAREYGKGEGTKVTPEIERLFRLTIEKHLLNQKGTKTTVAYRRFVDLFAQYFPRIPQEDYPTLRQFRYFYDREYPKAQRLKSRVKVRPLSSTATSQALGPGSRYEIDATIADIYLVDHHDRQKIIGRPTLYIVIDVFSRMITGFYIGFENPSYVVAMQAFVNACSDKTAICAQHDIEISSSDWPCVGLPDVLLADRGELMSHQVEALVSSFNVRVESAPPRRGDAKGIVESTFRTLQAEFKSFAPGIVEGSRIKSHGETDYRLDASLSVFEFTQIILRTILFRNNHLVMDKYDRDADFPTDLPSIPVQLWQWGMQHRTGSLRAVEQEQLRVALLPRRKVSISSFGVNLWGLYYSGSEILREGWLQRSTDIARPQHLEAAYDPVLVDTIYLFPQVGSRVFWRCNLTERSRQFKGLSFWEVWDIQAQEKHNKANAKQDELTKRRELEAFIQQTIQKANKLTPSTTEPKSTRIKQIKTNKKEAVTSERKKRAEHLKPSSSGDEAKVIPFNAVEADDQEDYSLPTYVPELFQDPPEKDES
The data set is described as follows: EMSA. In general terms: A gel shift assay detects complexes by their altered migration in electrophoresis.

In a further data set the target is T2, TnsB wild type (Escherichia coli (Tn7), UniProt P13989 1-702).
T2 sequence: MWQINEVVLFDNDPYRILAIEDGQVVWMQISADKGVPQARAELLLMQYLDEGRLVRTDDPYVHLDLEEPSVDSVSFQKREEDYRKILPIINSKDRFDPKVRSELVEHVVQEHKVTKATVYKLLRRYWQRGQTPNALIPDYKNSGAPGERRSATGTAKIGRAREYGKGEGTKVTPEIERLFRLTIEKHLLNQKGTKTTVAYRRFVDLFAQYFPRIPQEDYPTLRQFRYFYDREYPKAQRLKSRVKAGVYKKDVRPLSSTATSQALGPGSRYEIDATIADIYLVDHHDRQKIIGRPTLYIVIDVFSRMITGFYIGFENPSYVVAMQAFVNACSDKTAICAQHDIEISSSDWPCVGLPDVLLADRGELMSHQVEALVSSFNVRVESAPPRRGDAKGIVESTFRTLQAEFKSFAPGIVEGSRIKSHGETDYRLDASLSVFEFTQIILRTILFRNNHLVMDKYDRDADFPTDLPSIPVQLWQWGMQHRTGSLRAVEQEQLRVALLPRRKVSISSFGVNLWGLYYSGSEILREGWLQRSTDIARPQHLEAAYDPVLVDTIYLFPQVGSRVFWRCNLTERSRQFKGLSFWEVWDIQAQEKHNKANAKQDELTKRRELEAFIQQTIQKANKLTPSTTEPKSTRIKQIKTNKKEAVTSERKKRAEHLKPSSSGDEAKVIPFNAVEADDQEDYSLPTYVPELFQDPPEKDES
The experiment in a line: EMSA.

The data set “negative-stain EM” deals with the molecule itself. The data set is described as follows: negative-stain EM.

One may read the Kd as the equilibrium constant for the complex coming apart. Lower therefore signals tighter binding.

B1: Tn7 transposase TnsB (E. coli), wild type (enzyme, UniProt P13989 1-702, looked up)
chain: MWQINEVVLFDNDPYRILAIEDGQVVWMQISADKGVPQARAELLLMQYLDEGRLVRTDDPYVHLDLEEPSVDSVSFQKREEDYRKILPIINSKDRFDPKVRSELVEHVVQEHKVTKATVYKLLRRYWQRGQTPNALIPDYKNSGAPGERRSATGTAKIGRAREYGKGEGTKVTPEIERLFRLTIEKHLLNQKGTKTTVAYRRFVDLFAQYFPRIPQEDYPTLRQFRYFYDREYPKAQRLKSRVKAGVYKKDVRPLSSTATSQALGPGSRYEIDATIADIYLVDHHDRQKIIGRPTLYIVIDVFSRMITGFYIGFENPSYVVAMQAFVNACSDKTAICAQHDIEISSSDWPCVGLPDVLLADRGELMSHQVEALVSSFNVRVESAPPRRGDAKGIVESTFRTLQAEFKSFAPGIVEGSRIKSHGETDYRLDASLSVFEFTQIILRTILFRNNHLVMDKYDRDADFPTDLPSIPVQLWQWGMQHRTGSLRAVEQEQLRVALLPRRKVSISSFGVNLWGLYYSGSEILREGWLQRSTDIARPQHLEAAYDPVLVDTIYLFPQVGSRVFWRCNLTERSRQFKGLSFWEVWDIQAQEKHNKANAKQDELTKRRELEAFIQQTIQKANKLTPSTTEPKSTRIKQIKTNKKEAVTSERKKRAEHLKPSSSGDEAKVIPFNAVEADDQEDYSLPTYVPELFQDPPEKDES
Consider B1, for which the binding result in the data set “cryo-EM structure” is “binds”.

B2: 3BS (dsDNA)
DNA 1: CTAGTTTAAGACTTTATTGTCATAGTTTAGATCTATTTTGTTCAGTTTAAGACTTTATTGTCCGCCCACA
DNA 2: TGTGGGCGGACAATAAAGTCTTAAACTGAACAAAATAGATCTAAACTATGACAATAAAGTCTTAAACTAG
Take B2: in the data set with TnsB Δ245-251, the binding result is listed as “binds”.

B3: 2BSL (dsDNA)
DNA 1: CCCAGTTCCCATCTATTTTGTCACTCTTCCCTAAATAATCCTTAAAAACTCCATTTCCACCCCTCCCAGTTCCCAACTATTTTGTCCGCCCACA
DNA 2: TGTGGGCGGACAAAATAGTTGGGAACTGGGAGGGGTGGAAATGGAGTTTTTAAGGATTATTTAGGGAAGAGTGACAAAATAGATGGGAACTGGG
Take B3: binding with TnsB wild type was characterised by a dissociation constant (Kd) of 85 ± 4 nM.

B4: TnsB variant with a shorter DBD2-CD linker (Δ245–251) (enzyme, E. coli)
chain: MWQINEVVLFDNDPYRILAIEDGQVVWMQISADKGVPQARAELLLMQYLDEGRLVRTDDPYVHLDLEEPSVDSVSFQKREEDYRKILPIINSKDRFDPKVRSELVEHVVQEHKVTKATVYKLLRRYWQRGQTPNALIPDYKNSGAPGERRSATGTAKIGRAREYGKGEGTKVTPEIERLFRLTIEKHLLNQKGTKTTVAYRRFVDLFAQYFPRIPQEDYPTLRQFRYFYDREYPKAQRLKSRVKVRPLSSTATSQALGPGSRYEIDATIADIYLVDHHDRQKIIGRPTLYIVIDVFSRMITGFYIGFENPSYVVAMQAFVNACSDKTAICAQHDIEISSSDWPCVGLPDVLLADRGELMSHQVEALVSSFNVRVESAPPRRGDAKGIVESTFRTLQAEFKSFAPGIVEGSRIKSHGETDYRLDASLSVFEFTQIILRTILFRNNHLVMDKYDRDADFPTDLPSIPVQLWQWGMQHRTGSLRAVEQEQLRVALLPRRKVSISSFGVNLWGLYYSGSEILREGWLQRSTDIARPQHLEAAYDPVLVDTIYLFPQVGSRVFWRCNLTERSRQFKGLSFWEVWDIQAQEKHNKANAKQDELTKRRELEAFIQQTIQKANKLTPSTTEPKSTRIKQIKTNKKEAVTSERKKRAEHLKPSSSGDEAKVIPFNAVEADDQEDYSLPTYVPELFQDPPEKDES
As to B4, the binding result in “negative-stain EM” is given as “binds”.

These data come from PMC9308760 (Molecular cell, 2022).
